One molecule from article PMC6640694 can be followed below.

Some targets named below: tOX40.15; tOX40.19; tOX40.21; tOX40.22; tOX40.23; tOX40.31; tOX40.35; tOX40.37; tOX40.39; tOX40.40; tOX40.41; tOX40.4; tOX40.50; tOX40.54.
Holding throughout (assay): BLI; Octet Red96; 5 μg/mL antibody loaded onto Protein A biosensor, dipped into His-tagged OX40 extracellular domain at 200, 100 and 50 nM or 1600, 800 and 400 nM; 1:1 binding model, global fit

B1: recombinant His-tagged human OX40 extracellular domain (domain or fragment)
chain: LHCVGDTYPSNDRCCHECRPGNGMVSRCSRSQNTVCRPCGPGFYNDVVSSKPCKPCTWCNLRSGSERKQLCTATQDTVCRCRAGTQPLDSYKPGVDCAPCPPGHFSPGDNQACKPWTNCTLAGKHTLQPASNSSDAICEDRDPPATQPQETQGPPARPITVQPTEAWPRTSQGPSTRPVEVPGGRA
In the case of B1, the Kd with tOX40.15 was determined as 6 nM; with tOX40.19 it was 7.7 nM; in the test with tOX40.21, 7 nM; with tOX40.22, 7.3 nM; with tOX40.23 it was 5.2 nM; with tOX40.31 it was 22.4 nM. Also, the Kd with tOX40.35 worked out at 2.7 nM; with tOX40.37 it was 12.5 nM; in the test with tOX40.39, 90 nM; with tOX40.40 it was 151 nM; with tOX40.41, 58.4 nM; in the test with tOX40.4 it was 9 nM. Also, the Kd with tOX40.50 turned out to be 29.8 nM; with tOX40.54 it was 184 nM.
